The values that follow are results of earlier work, collected in publication PMC7508936.

The series addresses galectin-1 (Homo sapiens) (UniProt P09382).
Chain of UniProt P09382 (P09382 2-135): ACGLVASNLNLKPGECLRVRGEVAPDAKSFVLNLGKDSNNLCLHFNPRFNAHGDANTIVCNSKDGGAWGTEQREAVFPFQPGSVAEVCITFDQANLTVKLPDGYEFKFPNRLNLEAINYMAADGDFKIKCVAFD

For PSG1 (from UniProt P11464), the Kd was 0.13 µM.

Usually Kd stands for the constant that tells how readily two partners part at equilibrium.
